Assay results taken from a protein production outcome set (Wang et al. 2014).

Test: label from the status in PepcDB records

Sequence | protein production
MRKAWVKTLALDRVSNTPVVILGIEGTNRVLPIWIGACEGHALALAMEKMEFPRPLTHDLLLSVLESLEARVDKVIIHSLKDNTFYATLVIRDLTYTDEEDEEAALIDIDSRPSDAIILAVKTGAPIFVSDNLVEKHSIELEVNETQDEEEEFKKFVENLNIDTFKQMIEKKREEDEEGES | not failed
MRKEIRFSGFGGQGIILAGVILGRAASLYAGKEAVQTQSYGPEARGGASKSEVVISEIEIDFPKVIQPDILISMSQPAFDKYGYDLKENARVIVDRDLVNLPEGYEEKYEVYKVPFTEIANKEVGLGIVANIVMLGALTKLSGLVPKEEVEKALLDSIPKGTEKKNLMAFEKGYEYL | not failed
MRKILEKVRRNRTYSFGKDLYDRTMRDDVAGLAAQLAYFFLLAIFPGLVFLITLLGFIDLQTESVLNLLEPYVPEDAMSLIEVNVDKVVNEQNGGLLSFGLLSMLWFASNGVNAVMNAFNRAYDVTETRSFIKTRALSIVFTLAIIFMIVFALIVPVFGQVIGAAVFKAIGLSDSFSYVWSITRLVASFFVLFALFSFLYTFAPDRKLKRREVISGATFATVGWIVVSYSFAYYVDKFANYANTYGGLGGIIILMLWFYLTGWVILLGGEINGLLHHYRTGDNNSRNEK | failed
MRKLDICIKSGLHFRTHRQHPDDDSVKTLTLECVDPQMVPVPRHWGRLAHRLLERAMTQATRPLPPPDGMGPTYRKILWRLIPFLFVCNLFNYLDRVNVGFAKLQMLRDLGMSQTVYGLGAGIFFIGYLACGVPSNLILQRIGARRWVAIMMVSWGLLSTCLLFVRTPAGFYTLRLLTGAAEAGFFPGILLYLTRWFPRDRHGRVTTVFMSAIPISGVLGGPLSGWILGYFSAGQGGLAGWQWMFLLQGLPTVLLGNGVWFLLSDGVQEASWLNPQEKQALARVLADDEAGKPAGASTSLRAVLCNPAVWLLGTVYFCIQSGVYAINFWLPSIIQDSGVTDPVRIGLMSAIPYLAAAVFMVLMGRSADRRGERRWHLVIPLLMGAAGLCIAASVTDNLGLALFGMTLATMGAVSGLPLFWPLTNGFLTAAAAAGGLALINSTGQVAGFVSPYLVGWIKDTTHSTQLALYVLAGAMLLGAALVLRVPACAVNQ | failed
MRKLISIFLILCTFLLCGCSDVKHELNRLSLVLCSGIDLSEDGRYIYTVEILNVGASSPQSSGKQGASPSINVFSSEGHTITEAFNNASVLSGEPLFFAHSRMVVVGERLAKYGLSDMMDKLFRHYTIRPDGLIFVTKGNARDIVSTYTPDQPLPAEKLRTMSMLQEMTGYSISYSRLDLVKALTSKSHAGAIGLISLRPDQKFSNRFNMYGAGVFKKDKLVGYLDTYETRGLQWVTGHISSGSILVPLPDGKRIVFDIIDSKSKIKTKVNGNKLTMEINVAEESLISETNDKTNVMKHYKEMNKLAKLESEAIKKEVSSALAASQDRLKTDIFGFGSEIYRDNPKYWKTVENNWDNIFPNVNVKINVKCIVRRPGLTSQPII | failed
MRKLRKLLLFSTVLFVVFTQLFGFIITVDAAETATINLSAEKQVIRGFGGMNHPVWISDLTPQQRDTAFGNGEGQLGFTILRIHVDENRNNWSKEVATARRAIELGAIVFASPWNPPSNMVETFTRNGVPNQKRLRYDKYGDYVQHLNDFVAYMKSNGVDLYAISVQNEPDYAHEWTWWTPQEMLRFMRDYAGQINCRVMAPESFQYLKNMSDPILNDPQALANLDILGAHFYGTTVNNMPYPLFEQKGAGKELWMTEVYVPNSDSNSADRWPEALEVAHNMHNALVEGNFQAYVWWYIRRSYGPMKEDGTISKRGYMMAHYSKFVRPGYVRVDATKNPTYNVYLSAYKNKKDNSVVAVVINKSTEAKTINISVPGTSIRKWERYVTTGSKNLRKESDINASGTTFQVTLEPQSVTTFVGGGSSEPQIPVERNAFSKIECEEYNATNSSTVQVVGTGTGSGLGYIENGNYFAYKNINFGNGANSFKIRAATTGTPKIEIRLGSPTGTLAGTLQVAATGGFNAYEEQSCSINKITGVQDVYLVFGGAVNVDWFTFESKQEPTFKYGDLNGDGNVNSTDSTLMSRYLLGIITTLPAGEKAADLNGDGKVNSTDYNILKRYLLKYIDKFPVES | failed
MRKLTALFVASTLALGAANLAHAADTTTAAPADAKPMMHHKGKFGPHQDMMFKDLNLTDAQKQQIREIMKGQRDQMKRPPLEERRAMHDIIASDTFDKVKAEAQIAKMEEQRKANMLAHMETQNKIYNILTPEQKKQFNANFEKRLTERPAAKGKMPATAELEHHHHHH | not failed
